# Several values for one entry are separate records, joined by “and”; a condition that tells them apart may be missing. Equal entries are not always repeated. No end group written: not given here.
# Columns and labels:
# Format in all cases: physicochemical
# [1] = Relative surface activity by dilution studies on modified Wilhelmy balance-Langmuir trough; conditions: criterion: minimum dynamic surface tension less than 5 dynes/cm for each of seven consecutive cycles; phospholipid 25 mg/ml, 675 ug applied
# Procedure: For the purpose of this comparison "surface activity" is defined as follows: For any given peptide concentration, the admixture is required to result in a minimum dynamic surface tension of less than 5 dynes/cm for each of seven consecutive expansion/compression cycles.
# The admixtures were diluted with the synthetic lipid mixture as described in Example 4, so as to maintain the lipid concentration in all cases at 25 mg/ml. For these studies a standard volume of 27 ul, corresponding to a total phospholipid mass of 675 ug, was applied to the Langmuir Trough with maximum dimensions of 445 sq. cm.
# [2] = Dynamic surface tension versus compressed surface area, modified Wilhelmy balance-Langmuir trough; conditions: 675 ug phospholipid on trough at 445 sq. cm, peptide 0.5 mg/ml (2% of solids) in DPPC:PG:PA lipids; for Surface tension, Maximum: maximum recorded during seven complete cycles; for Surface tension, Minimum: minimum recorded during seven complete cycles
# Excerpt: The dynamic surface tension lowering properties of the peptide/lipid admixtures were studied using a modified Wilhelmy surface Balance (Langmuir Trough). The instrument consists of an all Teflon trough and movable Teflon ribbon (dam) barrier system which completely contains and defines a variable surface area. Surface area was varied through the use of a constant rate reversible 3-phase motor to drive the Teflon barrier. A Cahn 2000 electrobalance (Cahn Instruments, Cerittos, Calif.) with a sandblasted 1 cm platinum plate and stainless steel hangdown wire was employed to determine the surface tension at the liquid-air interface. The entire apparatus was situated in a thermostated incubator set at 45° C. Surface area-surface tension measurements were made by adding 950 ml of 0.15 M NaCl to the trough. Subphase temperature was controlled during the measurements at 36°-38° C.
# For each experiment 27 ul of peptide/lipid admixture was applied in a random array of 13 (.perspectiveto.2 ul) droplets to the surface of the temperature controlled subphase and allowed to spread spontaneously for 3 minutes. (The 27 ul application corresponds to 675 ug of phospholipid). The trough surface area was then cycled from a maximum (445 sq. cm) to a minimum (178 sq. cm) surface area and black to maximum at a cycling rate of 3 cycles/min (compression ratio 2.5:1). The dynamic surface tension vs surface area was recorded for 7 complete compression-expansion cycles for each application.
# [3] = Adsorption (surface tension lowering), modified Wilhelmy surface balance; conditions: equilibrium adsorption after three (3) minutes spreading time; peptide 0.5 mg/ml (2% of solids)
# Procedure: A procedures similar to that described by Notter, et al., Petaitric Res. 16, 515-519, (1982) was employed to determined the absorption rate in the absence of diffusion resistance. The modified Wilhelmy surface balance as described above was used. However, instead of using a Langmuir trough a round Teflon dish (5.1 cm diameter) was employed. The subphase, 70 ml of 0.15 M NaCl, was allowed to equilibrate to 37° C. in the incubator and was continuously stirred with a Teflon coated magnetic stirrer. An aliquot of the peptide/lipid fragment admixture containing 5 mg of total phospholipid was dispersed in 10 ml of 0.15 M NaCl by vortexing for 10 seconds. This dispersion was then added to the saline subphase. Surface tension lowering was monitoring using a strip chart recorder connected to the electro balance output.
# [4] = Pulsating bubble surfactometer (PBS), surface tension at air-aqueous interface; conditions: after 5 minutes pulsation (100 cycles), 20 cycles/minute, 37 C, 1 mg/ml phospholipid in 0.15 M NaCl; peptide 2% of phospholipids
# Procedure: The Pulsating Bubble Surfactometer (PBS). The PBS equipment (Electrtonetics, Buffalo, N.Y.) used was essentially equivalent to that described in detail by G. Enhorning, J. Appld, Physiol. 43, 198-203, (1977). Recordings were made of the pressure gradient across the wall of a small air bubble, communicating with ambient air by means of a narrow chimney stack, but otherwise entirely surrounded by a 40 ul volume of the peptide/lipid admixture. The admixture concentration employed for these studies was 1 mg/ml total phospholipid (0.02 mg/ml total peptide) and the diluent was 0.15 M naCl. Immediately prior to loading the sample chamber, the diluted samples were sonicated for 15 seconds to remove any gas nuclei.
# The pressure drop across the air-water interface was measured during pulsation by a pressure transducer, and the corresponding surface tension determined through the application of Young's law and the Laplace equation. Measurements were all made at 37° C. and the bubble pulsed at 20 cycles/minute to render respectively a maximum (1.1 mm) and a minimum (0.8 mm) bubble diameter. (This compression/expansion corresponds to a 50% change in the surface area of the air-water interface).
Molecule,Lowest Peptide (Protein) Concentration At Which Surface Active Criteria Are Met [1],"Surface tension, Maximum [2]","Surface tension, Minimum [2]",Adsorption [3],Minimum Surface Tension [4]
"SP-B(1-40): synthesized SP-B peptide fragment, position 1-40, 40 amino acids",15.0 ug/ml and 3.3 uM,48.5 dynes/cm,< 1 dynes/cm,42.5 dynes/cm,7.1 ± 0.41 dyne/cm
"SP-B(1-60): synthesized SP-B peptide fragment, position 1-60, 60 amino acids (FPIPLPYCWLCRALIKRIQAMIPKGALAVAVAQVCRVVPLVAGGICQCLAERYSVILLDT; ends and bridges not checked; cysteine pairing not given here; UniProt P07988 201-260, looked up, fragment)",125.0 ug/ml and 18.9 uM,47.5 dynes/cm,< 1 dynes/cm,42.0 dynes/cm,7.2 ± 0.26 dyne/cm
"SP-B(12-60): synthesized SP-B peptide fragment, position 12-60, 49 amino acids (RALIKRIQAMIPKGALAVAVAQVCRVVPLVAGGICQCLAERYSVILLDT; ends and bridges not checked; cysteine pairing not given here; UniProt P07988 212-260, looked up, fragment)",30.0 ug/ml and 11.4 uM,49.0 dynes/cm,< 1 dynes/cm,41.0 dynes/cm,10.3 ± 0.67 dyne/cm
"SP-B(27-78): synthesized SP-B peptide fragment, position 27-78, 52 amino acids (LAVAVAQVCRVVPLVAGGICQCLAERYSVILLDTLLGRMLPQLVCRLVLRCS; ends and bridges not checked; cysteine pairing not given here; UniProt P07988 227-278, looked up, fragment)",30.0 ug/ml and 5.3 uM,49.5 dynes/cm,< 1 dynes/cm,40.0 dynes/cm,4.7 ± 0.26 dyne/cm
"SP-B(30-60): synthesized SP-B peptide fragment, position 30-60 (AVAQVCRVVPLVAGGICQCLAERYSVILLDT; ends and bridges not checked; cysteine pairing not given here; UniProt P07988 230-260, looked up, fragment)",250.0 ug/ml and 76.7 uM,52.0 dynes/cm,< 1 dynes/cm,41.0 dynes/cm,16.9 ± 0.95 dyne/cm
"SP-B(1-78): replica of the entire 78 amino acid residue sequence of the native human SP-B protein (peptide, UniProt P07988 201-279, looked up, Pulmonary surfactant-associated protein B synthetic) Pulmonary …: FPIPLPYCWLCRALIKRIQAMIPKGALAVAVAQVCRVVPLVAGGICQCLAERYSVILLDTLLGRMLPQLVCRLVLRCSM",15.0 ug/ml and 1.7 uM,44.0 dynes/cm,< 1 dynes/cm,37.5 dynes/cm,4.0 ± 0.72 dyne/cm

# Source: patent publication US5238920A, “Pulmonary surfactant protein fragments” (Abbott Laboratories, priority 1989, dated 1993)
